The values that follow come from doi:10.1101/2025.01.04.631317.

The assay deals with RSV post-fusion F (Flys-GCN without StrepII-tag) (Respiratory Syncytial Virus). Briefly: cryo-EM structure.

“RSV post-fusion F (Flys-GCN without StrepII-tag)”: the stoichiometry N – broadly, the number of molecules, sites or subunits per partner or assembly – came out at 3.
